From paper PMC6345845, “Phosphatidylinositol 4-kinase IIIβ (PI4KB) forms highly flexible heterocomplexes that include ACBD3, 14-3-3, and Rab11 proteins” (Scientific Reports, 2019)
Blank lines part the entries; values can stand above or below the binder they belong to.

Key:
[1] = biological target: the molecule itself; assay: AUC; sedimentation velocity, SEC buffer, 20 °C, 42 000 rpm; P-PI4KB alone (20 µM) and with Rab11; stoichiometries independent of Rab11 nucleotide state
[2] = biological target: T1, pseudo-wt PI4KB (human, UniProt Q9UBF8 1-816, internal deletion of a disordered loop (residues 423-522)); assay: SAXS; ACBD3 and pseudo-wt PI4KB mixed 1:1, dialyzed against 20 mM Tris pH 8, 200 mM NaCl, 2 mM TCEP, 1% glycerol; 3.0 and 4.5 mg/ml; details: both partners purified
T1 construct: phosphatidylinositol 4-kinase IIIβ (PI4KB) with intact N-terminus, containing only the internal deletion (residues 423-522)

[3] = biological target: T2, pseudo-wt PI4KB labeled with Atto488 (human, UniProt Q9UBF8 1-816, internal deletion of a disordered loop (residues 423-522), Atto488 (maleimide labelling)); assay: GUV recruitment (confocal microscopy); ACBD3 tethered to GUVs with DGS-NTA(Ni); Atto488-PI4KB and mCherry-Rab11 in solution, each approximately 50 nM; details: both partners purified
T2 construct: phosphatidylinositol 4-kinase IIIβ (PI4KB) with intact N-terminus, containing only the internal deletion (residues 423-522); also called Atto488 labeled PI4KB; wild type PI4KB
T2 sequence (Q9UBF8 other isoform, or with tags, fused parts or gaps with the stated changes): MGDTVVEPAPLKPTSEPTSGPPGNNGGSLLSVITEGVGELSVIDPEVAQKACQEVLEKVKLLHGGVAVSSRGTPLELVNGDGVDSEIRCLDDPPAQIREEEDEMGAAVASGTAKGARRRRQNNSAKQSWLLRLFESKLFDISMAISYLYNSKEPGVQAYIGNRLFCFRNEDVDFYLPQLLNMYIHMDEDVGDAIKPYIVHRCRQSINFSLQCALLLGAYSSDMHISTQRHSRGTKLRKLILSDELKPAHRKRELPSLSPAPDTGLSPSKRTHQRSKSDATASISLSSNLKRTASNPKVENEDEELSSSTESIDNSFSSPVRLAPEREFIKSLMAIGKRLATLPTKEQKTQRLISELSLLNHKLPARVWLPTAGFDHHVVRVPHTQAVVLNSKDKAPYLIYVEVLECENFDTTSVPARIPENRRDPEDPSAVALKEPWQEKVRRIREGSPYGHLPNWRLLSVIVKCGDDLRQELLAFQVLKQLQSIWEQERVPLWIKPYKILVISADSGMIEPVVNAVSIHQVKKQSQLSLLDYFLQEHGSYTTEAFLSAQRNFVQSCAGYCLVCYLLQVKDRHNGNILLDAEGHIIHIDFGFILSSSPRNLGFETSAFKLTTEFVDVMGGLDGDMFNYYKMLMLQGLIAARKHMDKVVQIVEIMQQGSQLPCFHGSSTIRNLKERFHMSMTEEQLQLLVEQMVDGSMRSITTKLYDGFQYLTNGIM

T1 sequence (Q9UBF8 other isoform, or with tags, fused parts or gaps with the stated changes): as above

B1: phosphorylated PI4KB (residues 128-799, internal deletion 423-522, T292R, phosphorylated at S294 by PKA) (enzyme, human, UniProt Q9UBF8 128-799, looked up)
chain: SWLLRLFESKLFDISMAISYLYNSKEPGVQAYIGNRLFCFRNEDVDFYLPQLLNMYIHMDEDVGDAIKPYIVHRCRQSINFSLQCALLLGAYSSDMHISTQRHSRGTKLRKLILSDELKPAHRKRELPSLSPAPDTGLSPSKRTHQRSKSDATASISLSSNLKRRASNPKVENEDEELSSSTESIDNSFSSPVRLAPEREFIKSLMAIGKRLATLPTKEQKTQRLISELSLLNHKLPARVWLPTAGFDHHVVRVPHTQAVVLNSKDKAPYLIYVEVLECENFDTTSVPARIPENRRDPEDPSAVALKEPWQEKVRRIREGSPYGHLPNWRLLSVIVKCGDDLRQELLAFQVLKQLQSIWEQERVPLWIKPYKILVISADSGMIEPVVNAVSIHQVKKQSQLSLLDYFLQEHGSYTTEAFLSAQRNFVQSCAGYCLVCYLLQVKDRHNGNILLDAEGHIIHIDFGFILSSSPRNLGFETSAFKLTTEFVDVMGGLDGDMFNYYKMLMLQGLIAARKHMDKVVQIVEIMQQGSQLPCFHGSSTIRNLKERFHMSMTEEQLQLLVEQMVDGSMRS
modifications: phosphoserine at 294 (in vitro by protein kinase A)
notes: phosphatidylinositol 4-kinase IIIβ (PI4KB), residues 128-799 with internal deletion of a disordered loop (residues 423-522) and T292R; also called P-PI4KB; phosphatidylinositol 4-kinase IIIβ; source: phosphorylated in vitro by PKA; Mono Q, SEC
stoichiometry N [1]: 2

binding result [2]: binds
B2: ACBD3 (Acyl-CoA-binding domain-containing protein), tag cleaved (natural protein, UniProt Q9H3P7 1-528, looked up)
chain: MAAVLNAERLEVSVDGLTLSPDPEERPGAEGAPLLPPPLPPPSPPGSGRGPGASGEQPEPGEAAAGGAAEEARRLEQRWGFGLEELYGLALRFFKEKDGKAFHPTYEEKLKLVALHKQVLMGPYNPDTCPEVGFFDVLGNDRRREWAALGNMSKEDAMVEFVKLLNRCCHLFSTYVASHKIEKEEQEKKRKEEEERRRREEEERERLQKEEEKRRREEEERLRREEEERRRIEEERLRLEQQKQQIMAALNSQTAVQFQQYAAQQYPGNYEQQQILIRQLQEQHYQQYMQQLYQVQLAQQQAALQKQQEVVVAGSSLPTSSKVNATVPSNMMSVNGQAKTHTDSSEKELEPEAAEEALENGPKESLPVIAAPSMWTRPQIKDFKEKIQQDADSVITVGRGEVVTVRVPTHEEGSYLFWEFATDNYDIGFGVYFEWTDSPNTAVSVHVSESSDDDEEEEENIGCEEKAKKNANKPLLDEIVPVYRRDCHEEVYAGSHQYPGRGVYLLKFDNSYSLWRSKSVYYRVYYTR
notes: ACBD3 with ACBD, CAR, Q and GOLD domains; no limits of the construct are printed; not shown: His6-GB1, N-terminal, cleaved

binding result [3]: binds
B3: ACBD3 with N-terminal 6xHis-GB1 tag (for GUV reconstitution) (natural protein, UniProt Q9H3P7 1-528, looked up)
chain: B2 chain
notes: ACBD3 with ACBD, CAR, Q and GOLD domains; Tethered to GUVs that contain DGS-NTA(Ni); also called membrane tethered ACBD3; not shown: His6-GB1, N-terminal, kept
